Target: VAMP2, native protein in rat brain detergent extracts (BDE) (UniProt P63045)
Chain of UniProt P63045 (P63045 whole entry, looked up): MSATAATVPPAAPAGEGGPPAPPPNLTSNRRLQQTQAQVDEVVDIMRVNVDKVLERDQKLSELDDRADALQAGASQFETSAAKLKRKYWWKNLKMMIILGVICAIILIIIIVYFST

LC of BoNT/B (B-LC), residues 1-439, His6-tagged
cleavage of SNARE proteins in rat brain detergent extracts (immunoblot): abolishes the immunoblot signal of VAMP2

Source: US20190136216
